The values that follow are results of earlier work, collected in article PMC3416746.

Data set [1] concerns the target mDia1 N-terminus (Mus musculus) (UniProt O08808).
Data set [2] deals with mDia1 DID DID (Mus musculus) (UniProt O08808).

In the case of RhoA (from UniProt P61586), the Kd – broadly, a measure of binding affinity in units of concentration – in data set [1] was 0.006 µM. Consider mDia1 DAD DAD (from UniProt O08808), for which the Kd in data set [2] is 0.15 µM.
